Reference: paper doi:10.1101/2021.10.25.465661 (bioRxiv, 2021)

Target: the molecule itself
Experiment: SEC-MALS

B1: Qin eTud3 (Qin 959-1195) (domain or fragment, Drosophila melanogaster, UniProt Q9VE55 959-1195, looked up)
chain: VRPVELSPYRMPDNTERNKRTTVNILYVRKPDEFYVTLPHFQKAINNLQKSVQKAAAAMYQNMLPRTDWQVGDMCYARVQANCDSQALWYRGVVTGVIPPGITCPIVRYQVHLRDLGELIDDVHSSSLANIDEADMRISSSAKRCHLHGIRPIGDEWSKDAIDFFMDQLKAYNEIHVTGRGRTENSLSVILWGSLSILTGPFSPATIKYVNINKALLMAGMAEKDHNSDSEDDQQSM
stoichiometry N: 2
